Laboratory results: patent publication US20220127365A1 (DREN BIO, published 2022)

What was measured:
[1] = target: T1, human CD94 (human, UniProt Q13241 1-179); test: competition assay, flow cytometry on NK cells of healthy donor PBMCs; 18H3-AF647 titrated, concurrently Mouse IgG1 control (or 1M4 at 8.5 µg/ml)
T1 construct: whole, on cells; Endogenous CD94 on primary cells (healthy-donor PBMC NK cells, CLPD-NK and T-LGLL patient cells), where it pairs with NKG2A or NKG2C; also called KLRD1; Natural killer cells antigen CD94
T1 sequence (looked up): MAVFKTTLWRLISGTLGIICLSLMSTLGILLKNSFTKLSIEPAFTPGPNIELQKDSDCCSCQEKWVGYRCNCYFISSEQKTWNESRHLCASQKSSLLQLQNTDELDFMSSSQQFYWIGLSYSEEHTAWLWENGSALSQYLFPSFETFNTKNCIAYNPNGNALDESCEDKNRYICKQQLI
Method: (§1) FIGS. 5A-5B show the results of competition assays performed for 18H3 anti-CD94 antibody evaluation. For all competition assays, 18H3 was incubated with PBMCs at a concentration of 1.3 μg/ml. […] Commercially available anti-CD94 antibodies were titrated and incubated with PBMCs concurrently with 18H3. […] To test competition between 18H3 and 1M4/1E4, 1M4 and 1E4 were incubated with cells at concentrations of 8.5 μg/ml and 11 μg/ml, respectively. 18H3 was fluorescently tagged with AF647 and incubated with cells concurrently with […].
(§2) Healthy donor PBMCs were seeded in 96-well plates at a density of 100,000 cells per well, incubated with human Fc block (Biolegend) and cell viability dye (Thermo Fisher) for 30 minutes on ice and protected from light. The cells were washed once with FACS buffer (PBS with 2% IgG low FBS). Unconjugated anti-CD94 antibodies at EC80 concentrations, CD3 FITC and CD56 PE antibodies, and APC-labeled anti-CD94 antibodies were incubated with cells for 30 minutes on ice and protected from light. The cells then received a final wash in FACS buffer before quantification on the Cytoflex (Beckman Coulter). All data acquisition and fluorescence compensation were performed using CytoFlex (Beckman Coulter, Atlanta, Ga.). Data analysis was performed using FlowJo software. […] Anti-CD94 APC was then quantified on the CD3−CD56+NK cell population. […]

[2] = target: T1, human CD94; test: table column 'HLA-E blocking'; flow cytometry on NK cells of healthy donor PBMCs, antibody at saturating concentration, blocked ligand PE labeled HLA-E tetramer; percent blocking = 100-((percent HLA-E positive with antibody)/(percent HLA-E positive with isotype)*100)
Method: FIGS. 4A & 4B show the results of HLA-E tetramer blocking assays performed with anti-CD94 and commercially available anti-CD94 antibodies using flow cytometry. Healthy donor PBMCs were incubated with anti-CD94 antibodies. PE labeled HLA-E tetramer was then incubated with the cell and antibody mixture, and detected using flow cytometry. For HP-3B1, 131412, 12K45, DX22, 1M4 and 1E4, 2.5 μl of HLA-E tetramer reagent was used, while 5 μl was used for 18H3 and HP-3D9. Saturating concentrations of each antibody was used in this assay. The percent blocking was calculated as 100−((percent HLA-E positive for anti-CD94 antibody)/(percent HLA-E positive for isotype)*100).
(§3) Healthy donor PBMCs were seeded in 96-well plates at a density of 100,000 cells per well, incubated with human Fc block (Biolegend) and cell viability dye (Thermo Fisher) for 30 minutes on ice and protected from light. The cells were washed once with FACS buffer (PBS with 2% IgG low FBS). anti-CD94 antibodies at EC80 concentrations were incubated with cells for 30 minutes on ice and protected from light. After incubation with the anti-CD94 antibodies, the cells were washed and incubated with HLA-E tetramer PE (Creative Biolabs), anti-CD3 pacific blue-labelled, and anti-CD56 FITC-labelled antibodies (Biolegend) for 30 minutes on ice and protected from light. The cells then received a final wash in FACS buffer before quantification on the Cytoflex (Beckman Coulter). All data acquisition and fluorescence compensation were performed using CytoFlex (Beckman Coulter, Atlanta, Ga.). Data analysis was performed using FlowJo software. NK cells were identified through gating on lymphocytes on the forward and side scatter, followed by doublet and dead cell exclusion, and gated on the CD3−CD56+ population. HLA-E expression was then quantified on the CD3−CD56+NK cell population. Percent blocking was calculated as 100−((percent HLA-E positive for anti-CD94 antibody)/(percent HLA-E positive for isotype)*100).

[3] = target: T1, human CD94; test: competition assay, flow cytometry on NK cells of healthy donor PBMCs; 18H3-AF647 titrated in the presence of 1E4 at 11 µg/ml
Method: as §1, §2

[4] = target: T1, human CD94; test: flow cytometry titration (100 nM to 0.046 nM) on healthy-donor PBMCs, gated NK cells; EC50 from GraphPad Prism
Method: Peripheral blood monocuclear cells (PBMCs) of healthy donor HD-40 were used for antibody staining. 18H3 antibody was titrated from 100 nM to 0.046 nM in 1:3 dilutions and incubated with PBMCs. CD3 and CD56 antibodies were used to identify NK cells on the flow scatter. 18H3 antibody binding on […] and CD56 bright NK cells was used to assess affinity of 18H3. Titration curves and EC50 were generated using Graphpad Prism. […] Human IgG1 isotype control with secondary antibody (hIgG1) and goat (Fab)2 fragment anti-human Fcy-specific secondary antibody AF647 only (2ndary Ab) were used as controls.
Healthy donor PBMCs were seeded in 96 well plates at a density of 100,000 cells per well, incubated with human Fc block (Biolegend) and cell viability dye (Thermo Fisher) for 30 minutes on ice and protected from light. […] After incubation, the cells received a final wash in FACS buffer before quantification on the Cytoflex (Beckman Coulter). All data acquisition and fluorescence compensation were performed using CytoFlex (Beckman Coulter, Atlanta, Ga.). […] CD94 expression was then quantified on the CD3−CD56+NK cell population. […]
The affinity of the antibody clones was also assessed by flow cytometry analysis.

[5] = target: T1, human CD94; test: flow cytometry titration of Alexa Fluor 647 conjugate on CLPD-NK patient cells (CD3-CD16+); CLPD-NK cells
Method: (§4) The ATX-130 antibody was produced in Expi-CHO cells cultured in the presence of kifunensine, a potent inhibitor of the mannosidase I enzyme, which is used to produce ATX-130-KIF mimicking non-fucosylated antibody. PBMCs of healthy donors were used for antibody staining ATX-130 antibody was titrated from 50 nM to 0.02 nM. Secondary anti-human antibody labeled with Alexa Fluor 647 was used to detect binding on CD3−CD56 bright NK cells. ATX-130-KIF antibody conjugated with Alexa Fluor 647 was titrated from 50 nM to 0.02 nM. T-LGLL cells were identified using CD3+CD16+ gating, while CLPD-NK cells were identified using CD3−CD16+ gating strategy. Titration curves and EC50 were generated using Graphpad Prism. […] Fluorescently labeled human IgG1-KIF isotype-KIF antibody was used as control. Arrows indicate ATX-130 and Human IgG1-KIF data points.
(§5) The affinity of the antibody clones was assessed by flow cytometry analysis. ATX-130-KIF mimicking non-fucosylated antibody was produced by culturing Expi-CHO cells cultured in the presence of kifunensine, a potent inhibitor of the mannosidase I enzyme. […] Thus, ATX-130 and ATX-130-KIF have similar binding affinity on primary human NK cells, cynomolgus NK cells, CLPD-NK cells, and T-LGLL cells.

[6] = target: cynomolgus CD94 (cynomolgus monkey); test: cell-based or functional assay
[7] = target: T1, human CD94; test: cell-based or functional assay
[8] = target: T1, human CD94; test: flow cytometry titration of Alexa Fluor 647 conjugate on T-LGLL patient cells (CD3+CD16+); T-LGLL cells
Method: as §4, §5

[9] = target: T2, cynomolgus CD94 (cynomolgus monkey); test: flow cytometry titration of Alexa Fluor 647 conjugate (50 nM to 0.02 nM) on primary cynomolgus NK cells
T2 construct: whole, on cells; The construct expressed in HEK293 cells is not described further; also called cyno CD94; cynomolgus monkey CD94
Method: as §4, §5

[10] = target: T3, CD94/NKG2A heterodimer on BaF3 cells (UniProt Q13241 1-179; P26715 1-233, limits assumed); test: flow cytometry titration (50 nM to 0.02 nM) on BaF3 cells, anti-human AF647 secondary antibody; BaF3 cells overexpressing CD94/NKG2A heterodimer
T3 construct: whole, on cells
T3 sequence (P26715 whole entry, one chain of several): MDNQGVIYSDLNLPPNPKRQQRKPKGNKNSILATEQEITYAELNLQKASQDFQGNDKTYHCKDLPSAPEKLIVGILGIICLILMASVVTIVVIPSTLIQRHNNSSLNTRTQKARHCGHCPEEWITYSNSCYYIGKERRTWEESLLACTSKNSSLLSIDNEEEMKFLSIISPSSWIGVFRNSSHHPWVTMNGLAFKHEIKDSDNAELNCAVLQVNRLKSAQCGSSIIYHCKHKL
Method: (§6) BaF3 cells overexpressing CD94 homodimer (top panel), CD94/NKG2A heterodimer (lower left panel), and CD94/NKG2C heterodimer (lower right panel) were incubated with unconjugated ATX-130 antibody in a dilution series from 50 nM to 0.02 nM. Secondary anti-human antibody labeled with Alexa Fluor 647 was used to detect ATX-130 binding on cells.
(§7) The affinity of the antibody clone ATX-130 on CD94 homodimer and heterodimer was also assessed by flow cytometry analysis.

[11] = target: T4, CD94 homodimer on BaF3 cells (UniProt Q13241 1-179); test: flow cytometry titration (50 nM to 0.02 nM) on BaF3 cells, anti-human AF647 secondary antibody; BaF3 cells overexpressing CD94 homodimer
T4 construct: whole, on cells
T4 sequence (looked up): T1 sequence (looked up)
Method: as §6, §7

[12] = target: T1, human CD94; test: HLA-E tetramer blocking on healthy-donor PBMCs, flow cytometry; competitor HLA-E tetramer
Method: as §3
Healthy donor PBMCs were incubated with anti-CD94 antibodies. PE labeled HLA-E tetramer was then incubated with cells and antibody mixture and detected by flow cytometry.
Percent blocking was calculated as 100−((percent HLA-E positive for anti-CD94 antibody)/(percent HLA-E positive for isotype)*100). If an antibody blocked more than 20% of HLA-E binding, it was considered a ligand-blocking antibody.

[13] = target: T5, CD94/NKG2C heterodimer on BaF3 cells (UniProt Q13241 1-179; P26717 1-231, limits assumed); test: flow cytometry titration (50 nM to 0.02 nM) on BaF3 cells, anti-human AF647 secondary antibody; BaF3 cells overexpressing CD94/NKG2C heterodimer
T5 construct: whole, on cells
T5 sequence (P26717 whole entry, one chain of several): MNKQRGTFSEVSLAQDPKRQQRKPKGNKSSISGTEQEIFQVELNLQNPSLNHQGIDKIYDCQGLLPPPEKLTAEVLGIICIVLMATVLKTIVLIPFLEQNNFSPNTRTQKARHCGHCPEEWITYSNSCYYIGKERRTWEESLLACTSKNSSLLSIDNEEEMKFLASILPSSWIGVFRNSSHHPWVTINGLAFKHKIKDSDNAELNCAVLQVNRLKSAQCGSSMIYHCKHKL
Method: as §6, §7

[14] = target: T1, human CD94; test: flow cytometry titration (100 nM to 0.046 nM) on healthy-donor PBMCs, CD3-CD56bright NK cells; column 'Affinity on human NK cells (nM)'
[15] = target: T2, cynomolgus CD94; test: flow cytometry on HEK293 cells overexpressing cynomolgus CD94; unconjugated antibody in a dilution series, Alexa Fluor 647 anti-human secondary antibody
Method: For human NK cell binding, PBMCs were freshly isolated from healthy donors and incubated with unconjugated antibodies in a dilution series from 100 nM to 0.046 nM. Secondary anti-human antibody labeled with Alexa Fluor 647 was used to detect binding on CD3−CD56bright NK cells. For cynomolgus CD94 binding, HEK293 cells overexpressing cynomolgus CD94 were incubated with unconjugated antibodies in a dilution series from 100 nM to 0.046 nM. Secondary anti-human antibody labeled with Alexa Fluor 647 was used to detect binding on the cells.

B1: anti-CD94 antibody 18H3 (antibody, V domains shown)
VH: EVQLVQSGAEVKKPGESLKISCKGSGYRFTSYWIGWVRQMPGKGLEWMGIIYPGDSDTRYSPSFQGQVIISADKSITTAFLQWSSLKASDTAMYYCARPFDYGGSPGYFDYWGQGTLVTVSS
VL: DIQMTQSPSTLSASVGDRVTITCRASQSIRSWLAWYQQKPGKAPKLLIYKASSLESGVPSRFSGSGSGTEFTLTISSLQPDDFATYYCQQYNTFWTFGQGTKVEIK
notes: Human variable domains from ATX-Gx Alloy transgenic mice; Screened as hybridoma supernatant; also called human IgG1 18H3
[1]
  EC50 (read off the curve): ~0.8 nM
[2]
  HLA-E blocking: 0%
[3]
  EC50 (read off the curve): ~3 nM
[4]
  EC50: 2.6 nM

B2: ATX-130-KIF (antibody, human IgG1, V domains shown)
VH: EVQLLESGGGLVKPGGSLRLSCAASGFTFSSYSMNWVRQAPGKGLEWVSSISTSSNFIYYADSVKGRFTISRDNAKNSLYLQMNSLRAEDTAVYYCARDLGRYYYYMDVWGKGTTVTVSS
VL: DIVMTQSPSSLSASVGDRVTITCRASQSISSWLAWYQQKPGKAPKSLIYAASSLQSGVPSKFSGSGSGTDFTLTISSLQPEDVATYYCQKYNSAPFTFGPGTKVDIK
notes: also called KIF-treated ATX-130; ATX-130-KIF Alexa Fluor 647
[5]
  EC50: 1.4 nM
[6]
  IC50 of cynomolgus NK cell depletion, ADCC assay with cynomolgus PBMCs: 0.3 ng/mL
[7]
  IC50 of CLPD-NK leukemic cell depletion, ADCC assay with patient PBMCs: 0.6 ng/mL
  IC50 of T-LGLL leukemic cell depletion, ADCC assay with patient PBMCs: 0.2 ng/mL
  IC50 of human NK cell depletion, ADCC assay with healthy donor PBMCs: 0.8 ng/mL
[8]
  EC50: 3 nM
[9]
  EC50: 1 nM

B3: anti-CD94 antibody ATX-130 (antibody, human IgG1, V domains shown)
VH: B2 VH
VL: B2 VL
notes: also called hATX-130
[10]
  EC50: 0.8 nM
[11]
  EC50: 0.3 nM
[12]
  percent HLA-E blocking: 0%
[13]
  EC50: 1.8 nM
[14]
  EC50: 0.6 nM
[15]
  EC50 (read off the curve): ~0.7 nM
